Assay results: the DeepSol protein solubility set

assay: soluble on expression in E. coli; label from the status in PepcDB or PDB records

Row | Sequence | soluble on expression in E. coli
1 | MGSDKIHHHHHHMAKAKTQFICSNCGYTSARYLGRCPNCGQWNTLIEEKIVPEAVVNRKARISFDGRVAKPKKISEISGNELPRTRTGLRELNRVLGGGIVPGSLILIGGDPGIGKSTLMLQVSGQLAENGGSVLYVSGEESDNQIKLRADRLGVGSDSFIVYPETDMEQIKSIVQQIEPDYLVIDSVQTMQEPDLQSPIGSVAQIREVTANLMQIAKTNAITVFIVGHVTKDGSIAGPKILEHMVDTVLYFEGDANYKYRILRTVKNRFGSTNELGIFEMRDHGLREVANPSEIFLEERLAGATGSAITASMEGSRPILVEVQALVAPTVFGNAQRVTTGVDRNRVSQILAVLEKHANLLLQNQDAHVRITGGVKIDEPAADLAIALAVASSYHEKATNASDVFLGEVGLGGEVRSISLIEDRLKEIAKLGFKRAIVSKNNLAGIDLPKGLQVIGVSTLEEALKLGLDLNRASKQKGFADL | not soluble
2 | MGSDKIHHHHHHMAKDIIKLGDVATYINGYAFKPEDRGEEGLQIIRIQDLTGNSYDLGFYNGKYPKKIEINDGDVLISWSASLGVYVWNGGKALLNQHIFKVKFDKVDIDKSYFVYAVRYKLNDMGKKTHGATMKHIVKRDFDATEIPYPPLKKQIEIAINLDKVLMVIKERKRELKLLDELIKARFVEMFGDCTNMISLSDLCLIITDGTHQSPKFQHEGIPFILVSNLSKNTVTYDTDKFISAETYKELYKRTPIEIGDILLSTVGSYGHPAVVVEDRKFLFQRHIAYLKPKSDILNSYYMHGALLSPGCQRQIEEKVKGIAQKTLNLSEIRKIRIPVPSLDLQKQYADFVHQVNKSKVAVQKALDETQILFDSLMQKYFG | not soluble
3 | MGSDKIHHHHHHMAKTNPGRFFEDYTVGQTLHHAVPRTVTNGERALYHALYPARHALYSSDAFAQSCGLPGSPIDDLAAFHVVFGKTVPDVSLNAVANLGYAEGRWLKPVYAGDTLRSVSEVIGLKQNSNGKTGVVYVRTRGLNQRDETVMEYVRWVMVRKRDLDAPAPEIVVPELKKALAPNDLVVPEGLDFTAYDFALAGEPHRWGDYAVGETIDHVDGVTVEEAEHMLATRLWQNTAKVHFDLTFRPDGRLIYGGHVISMARALSFNGLANAQIIVGLNGGAHANPCFAGDTIKAWTEVLDKAETAAPGVGALRLRLVATKGGAPFALHGEDGKYLPEVLLDLDYWVLMPK | not soluble
4 | MGSDKIHHHHHHMALFESYDRRIDHINAVLNEYGINGIEDAKAICDAKGIDPYTMCKETQPICFENACWAYVVGAAIAIKKGCTNAAEAAEAIGIGLQAFCIAGSVADDRKVGIGHGNLAARLLREETKCFAFLAGHESFAAAEGAIKIAEMANKVRKEPLRVILNGLGKDAAKIISRINGFTYVQTQFDYMTGEVNVIEEKAYSNGLRAKVKCYGADDVREGVAIMRKEGVDVSITGNSTNPTRFQHPVAGTYKKECMENGHPYFSVASGGGTGRTLHPDNMAAGPASYGMTDTMGRMHGDAQFAGSSSVPAHVEMMGFLGMGNNPMVGATVAVAVAIEEAMKK | not soluble
5 | MGSDKIHHHHHHMALIHEIITSENIKGFYNAKNENVENTLGEKAFPPKQQLGLKLSFIKGAAGKPVTLKAAAFDTKVPLRDRMAVELIDEEMPFFKEAMLVKEADRQQLNMLAQTKNNELIDTILASIYNDQATLIAGAKARLEAMRMEVLSKGKIHIQSNGVMKDIDYGLAEDQTTKPDAKWDSAGTATPLKDIEKAIEKMAERGFVPEAIIMNSKTFSLIKNAESTLDVVKPMAPNGAAVTKRDLNTYLEDELQIKVILKDGMFVGDDGESRKYFPDGFATLVPNGNLGYTVFGTTPEQSDLLGGEATDANVSIVETGIAITTTKTTDPVNVQTKVSMIALPSFERLEEVHIINGLQDA | not soluble
6 | MGSDKIHHHHHHMAMDRVTKQLTVSKLLSLANFIPKDSQKILFYSTPDVSDNALALFKYISEKTDDYELAWLLNNPNSPSVKTLKEKYPEVKTIYLYSLEGLKELLRSKFVVLTDVLPLTPHRGQKIIQLWHGLPGKKTGYEHPLNVKDLYLYMDKWTTDFVTTSELVVGAFVRQFMINPRKFRILGQPRNDGLFDNLKDAKNILSSILGRDVEDYDHLILYAPTYRYTSYMKDFQASVNVVKTLFHHKFLEFLKEENILLVIKPHKLVADVIKPEIKENSNVILLTDEHLQSRLITINDVMGAFDILITDYSSIFEDYILLERPILFYLPDREALERKSGFLLPYEFFAPGRKPETLEGLIHALKIYMEDPEVDSEWRKTVKNLLYEVGKDNKSSERIYNLIIKQK | not soluble
7 | MGSDKIHHHHHHMANNIQGFVMIGAQAIVFSITNLRTLKTIERGRYPVAIGDDFYAEHEILPDTVDAIVQAFDAINQIFKDYGVPTVNVFASTSWAEADNAEFVRDQLYTRTGWLIKTTSLSEEAFFRTQAIMVKFPQFKSITQKGTVLIDISSGSVELTTFSNGVFGFSRNLSLGPLRVYEIMSDVQRSVTNYVEVMRDYIDSRLLDFMRLLPQGVEYTNMILMGSNLSIFQNIIPEGKHQVETDRPGFDLLYDEVTKASDQYLADTYDLTSDQTSLVLPTVLLVYRLVETLNSQSIWISDLKAIDGIEVNAAHEGGFKKLGFDPNEEIVISANNLAERYQVDEAHMQATRTVALQLFDRLKKLHGMGKRERLLLEVAATVSDIGSYIETHKHYAHSNYIIKASEIMGLNDLEVTMVATITRFHSSITPQSDLKNFPTMSTENRLVVAKLSALLRVADSLDASRQQKIQQLRVSVKPNEVLLTARADDDIELERWTLARKGKFFSEVFGLGLELKGRNIL | not soluble
8 | MGSDKIHHHHHHMAQMTPSQEPQSAAEYDDRTTAAVKSVLIEIGQILGSFKGKFAIIGGAVPWLLLANEDMPHVGTLDVDVGLDAEALGDGEYATLVGALQGHGYAQREGLRRFQLVRQVPARDGGEAIDVVVDFLMPRDAEIVRNNPPLISDFAVQRADGADLAMRFYQLVAVAGSMPDGGTNRVEIAVCSIPALLAMKGHALAGRYKQKDAYDIYYCVRNYPAGIEALAQECRPLLGHASGERGFLHIADKFDAFDGYGPTCVRRFVEDTQALGDRTPDQWQQDAFGQIDALLRAMALRG | not soluble
9 | MGSDKIHHHHHHMASISIRCPSCSATEGVVRNGKSTAGHQRYLCSHCRKTWQLQFTYTASQPGTHQKIIDMAMNGVGCRASARIMGVGLYTVLRHLKNSAESVTSRIQPGSDVIVCAEMDEHWGYVGAKSRQRWLFYAYDRIRRTVVAHVFGERTLATLERLLSLLSAFEVVVWMTDGCPLYESRLKGKLHVISKRYTQRIERHNLNLRQHLARLVRKSLSFSKSVELHDKAIGHYLNIKHYQ | not soluble
10 | MGSDKIHHHHHHMASYSLVESNSFGSENWCLKLQPSYKHGLLTGLSNGEIRLLDWSTGKSVQKIKASETAINDMKVIGSDFSAGHLVSSASIDAVKVFDIRTNDRIAQIQNEANSPFISLDSRHGLLACGTELQGIDAAVYIYDIRKWDTPLRSLIDSHHDDVTCIKFHPSDVNILLSGSTDGYTNIYDLKQDEEEDALHQVINYASIHSCGWLSPKRIFTLSHMETFAIHELNDKSDELKEPQPLDFGDVREIWNCDYVVDIYPGLIATGKTQENCGELCLLPFKDEKVDTENGIVIPHAHGDEVVRDIFIPAQHSNMLYSCGEDGCVKIWENKQGPLDIPENFWDYSKKMNVLGDDDREGSINLDEPLIIQKESVSTRPRKEKHKKAKKHSMKSRFKPY | not soluble
11 | MGSDKIHHHHHHMATVLIVGRPNVGKSTLFNKLVKKKKAIVEDEEGVTRDPVQDTVEWYGKTFKLVDTCGVFDNPQDIISQKMKEVTLNMIREADLVLFVVDGKRGITKEDESLADFLRKSTVDTILVANKAENLREFEREVKPELYSLGFGEPIPVSAEHNINLDTLLETIIKKLEEKGLDLESKPEITDAIKVAIVGRPNVGKSTLFNAILNKERALVSPIPGTTRDPVDDEVFIDGRKYVFVDTAGLRRKSRVEPRTVEKYSNYRVVDSIEKADVVVIVLDATQGITRQDQRIAGLVERRGRASVVVFNKWDLVEHREKRYDEFTKLFREKLYFIDYSPLIFTSADKGWNIDRVIDAINLAYASYTTKVPSSAINSALQKVLAFTNLPRGLKIFFGLQVDIKPPTFLFFVNSIEKVKNPQKIFLRKLIRDYVFPFEGSPIFLKFKRSR | not soluble
12 | MGSDKIHHHHHHMAVSSLAGLGLRREMLAEFSQSVPAQIDFFEVAPENWMALGGKYGKQFRALTERHAFFCHGLSLSIGSSAPLDIDFIKGIKAFLDLHGIAVYSEHLSYCSGSGHLYDLMPMPFTPEAVRHIAGRVKQVEDIIERPLILENISFYAAPGAQMTELEFVLAVLEEADCQLLLDVNNIYVNSINHNYDAAAYLAAMPTERIRYLHVAGHYVEAPDLIVDTHGADIVDPVWQLLCDCYALHGPLPTLLERDFNIPPIGELLQEIDRIRDYQAAAIRTSRRAG | not soluble
13 | MGSDKIHHHHHHMAVTDKERKLAATLSDPVLWGQAYLYNRDGSGRDYWPHQVEDLRCPAKNIIHLDGRDVGKSIVLSTDALHYAFTTRGGQGLVAAPHQGHLDTIIEEIEFQLDTNPDLMNSIALTKYGKPKIHRKPYFRLEFTNGSVLYFRPAGAYGDAFRSLHVGRVWVDEGAWLTERAWKALRQCLKAGGTLRIYSTPNGLRDTTYYRLTSSEQFHVFRWPSWLNPLWTEDREAELLEFYGGRDSSGWQHEVAGEHGKPSYGAFNVEQFNLCRQDLLEYQKIVITDSELRDCDTEEAAHDRLEMLLNLTPRSGQFWVGGDLGYTNDPTEIVVFQEMEVGERTLLKMILRVHLEHVSYPHIAQIIALLERYYTPAGIGVDNGGNGLAVVQELLTLDKYKGLELEGRLKGYDFGGMTRLAVRDGKEIKKRTKELMTSLINGALQRKQLIFPSDDLEVEDQFTTHTYTLRDGKIIYSKGNDHIIDAVRCAMLIREEGNLDPVGEEVVSLKPVLTNPVFI | not soluble
14 | MGSDKIHHHHHHMAYLDNIAVFVRVVELGNLSAAGRDMRISPAVASNRIKELEKHLGVRLFNRTTRQLMPTEHGTVFYSGAKQVLEAITEAEAAVSALSGQPRGTIRVTAPLGLGRRLVASGIPDFHDKYPDIEVRLRLSDHNVDIMKEGIDVAFRLGIIEDSSLRMRGIMECERVLVAAPKYLEARGEPAEPQELIGKKHDCLMLRYSGAREYVWTLQTPTGPQKFEVHGPYDTDDGDVLTGWALSGRGIINKPRFEVEPFIRDRRLQVILANTPPTPVQFAAVYPHKKLQDPKVRLLLDFMAERCQRLIKDILAGK | not soluble
15 | MGSDKIHHHHHHMAYNDSTKQYQRMLASYTRTGIETAIPGTKEEGIMRYRTMIYTIVNESLSTSYPLTRQLLTAQEWDDTVHRYFSTHACTSPYLWRMPLEFYEYIQEEQSALLIKYPCLSDLLLFEWVEIEVFMMEDEEVLHKTEGAVETDALVLNPACAVQYFQYPVYAKRAAEITPADAAHYFMLTHRNPETGNVAFLEIAPMFARMFEWLTEEAMSVDQLISRFTEESQLALAADSRINIVSFFKNCLSKRIILGFN | not soluble
16 | MGSDKIHHHHHHMAYRNGTYVAFHANGTNRPGGNSDIDYYNLLKAWVGKDDDHFTMNNSHDKASAVRDSSKKETLRASLLERLRNSKNMVLIIGDTTLLDDDWVPFEISSAVDTYEIPIIAVYTQYSTPIRNPAALRSRWPDALATRIDSQKAKVIHIPFKKAALNDAISQFSHNNMPKGPLSFYSDEAYESFGIDG | not soluble
17 | MGSDKIHHHHHHMCASVLSRCGVALSQIQPIRCHLCQQTPCLTQCAEHNDTLNQHAAEYVKLVLAIGHHEPLYVDAYYGPAQWQAEASMLPLPELASRCASLVNQLANAGKDLSCQFLRDRHGFLSKQLGAVAAYLKRLMGQEFSFDVESRLLYDTQAPKLNLSDFSEVLARIDSLLPGEGSLTKRFDTYRSQFIVPADRVPQVFTAAVEQARLLTKRHLALPEGEQFRVEFVKDQIWTAYNWYQGDYASLIQLNQDHPLHLDRALELASHEGYPGHHVFNLLQEHELVKGLGWWEYAIYPLYSPISFLSEGSANYGLSLLMTKEERIDFEQRVLMPMAGIAGDLQHYHEVMVTYKALANLDTLVCRQLIDGEIQADEAARLLVEFALYTPEKAAQRVRFYQANRSYVLNYHHGEASVGEYVTNQVRDNAQAWEVFAALLARPRAASGIIR | not soluble
